Measured values taken from PMC11109976, “CSB and SMARCAL1 compete for RPA32 at stalled forks and differentially control the fate of stalled forks in BRCA2-deficient cells” (Nucleic Acids Research, 2024).

How the values were obtained:
[1] = target: RPA32C C-terminal domain (Homo sapiens) (UniProt P15927); assay: ITC; conditions: cited from earlier work
[2] = target: T1, RPA32 construct spanning the region 210-270 (UniProt P15927 210-270, RED-tris-NTA dye on the His tag); assay: MST; RPA32C labelled with RED-tris-NTA (His-tag labelling kit), 100 nM mixed 1:1 with 2-fold serial dilutions of the ligand; 50 mM HEPES pH 8.0, 400 mM NaCl, 10% glycerol, 0.05% Tween-20; incubated 30 min at 37°C, measured at 25°C; three replicates; conditions: both partners purified
T1 construct: RPA32, residues 210-270 (C-terminal winged helix domain); Cloned by LIC; also called RPA32(210-270); C-terminal winged helix domain of RPA32; source: E. coli SoluBL21, purified (Ni-NTA, anion exchange, SEC)
T1 sequence (P15927 210-270): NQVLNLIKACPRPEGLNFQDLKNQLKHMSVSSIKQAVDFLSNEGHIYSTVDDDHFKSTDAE

Chain of RPA32C C-terminal domain (Homo sapiens) (P15927 202-270): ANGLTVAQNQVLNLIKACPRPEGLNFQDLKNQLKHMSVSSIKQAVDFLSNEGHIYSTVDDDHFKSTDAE

| Molecule | Kd [1] [µM] | Kd [2] [µM] |
| --- | --- | --- |
| SMARCAL1 peptide 5-30 (from UniProt Q9NZC9) | 2.9 |  |
| LTEEQRKKIEENRQKALARRAEKLLA (SMARCAL1, residues 5-30; also called 26-amino acid SMARCAL1 peptide; source: synthetic peptide, bought: LifeTein, LLC) [SMARCAL1 peptide (residues 5-30)] |  | 470 |
